Experimental data taken from paper PMC3498133 (2012).
Where “and” joins values, the source holds several entries; their conditions need not be identical. Identical values can stand only once.

Target: SpcU (Pseudomonas aeruginosa, UniProt O66100 1-137)
Assay: ITC

B1: ExoU (natural protein)
chain: MHIQSLGATASSLNQEPVETPSQAAHKSASLRQEPSGQGLGVALKSTPGILSGKLPESVSDVRFSSPQGQGESRTLTDSAGPRQITLRQFENGVTELQLSRPPLTSLVLSGGGAKGAAYPGAMLALEEKGMLDGIRSMSGSSAGGITAALLASGMSPAAFKTLSDKMDLISLLDSSNKKLKLFQHISSEIGASLKKGLGNKIGGFSELLLNVLPRIDSRAEPLERLLRDETRKAVLGQIATHPEVARQPTVAAIASRLQSGSGVTFGDLDRLSAYIPQIKTLNITGTAMFEGRPQLVVFNASHTPDLEVAQAAHISGSFPGVFQKVSLSDQPYQAGVEWTEFQDGGVMINVPVPEMIDKNFDSGPLRRNDNLILEFEGEAGEVAPDRGTRGGALKGWVVGVPALQAREMLQLEGLEELREQTVVVPLKSERGDFSGMLGGTLNFTMPDEIKAHLQERLQERVGEHLEKRLQASERHTFASLDEALLALDDSMLTSVAQQNPEITDGAVAFRQKARDAFTELTVAIVSANGLAGRLKLDEAMRSALQRLDALADTPERLAWLAAELNHADNVDHQQLLDAMRGQTVQSPVLAAALAEAQRRKVAVIAENIRKEVIFPSLYRPGQPDSNVALLRRAEEQLRHATSPAEINQALNDIVDNYSARGFLRFGKPLSSTTVEMAKAWRNKEFT
- Ka: 3.08e+07 M⁻¹ and 1.77e+07 M⁻¹
